Tests used:
[1] = target: human Siglec-7 expressed on human cells (primary monocytes, dendritic cells, macrophages, NK cells, … (human, UniProt Q9Y286 19-467)); test: cell-based or functional assay
V44A = target: T1, V44A (human, UniProt Q9Y286); test: flow cytometry on HEK-293T cells expressing the mutant; mean % of wild-type signal (range of duplicates)
T1 construct: clone of the siglec-7 mutation library; also called Siglec-7 V44A
Description: (§1) Shotgun mutagenesis epitope mapping of anti-siglec-7 antibodies was performed using an alanine-scanning library for the siglec-7 protein. […] Each of residues 19 to 353 was mutated, representing the siglec-7 extracellular domain, most to alanine, while alanine codons were mutated to serine. In total, 335 siglec-7 mutant expression constructs were generated, sequences confirmed, and arrayed into a 384-well plate, one mutant per well.
(§2) Cells were then incubated with MAbs diluted in 10% o normal goat serum (NGS) (Sigma-Aldrich, St. Louis, Mo.). Prior to library screening, primary MAb concentrations were determined using an independent immunofluorescence titration curve against cells expressing wild-type siglec-7 to ensure that signals were within the linear range of detection. MAbs were detected using 3.75 μg/ml AlexaFluor488-conjugated secondary antibody (Jackson immunoResearch Laboratories, Westgrove, Pa.) in 10% NGS. Cells were washed twice with PBS−/− and resuspended in Cellstripper (Cellgro, Manassas, Va.) with 0.1% BSA (Sigma-Aldrich, St. Louis, Mo.). Mean cellular fluorescence was detected using the Intellicyt high throughput flow cytometer (HTFC, Intellicyt, Albuquerque, N. Mex.). MAb reactivities against each mutant clone were calculated relative to wild-type siglec-7 protein reactivity by subtracting the signal from mock-transfected controls, and normalizing to the signal from wild-type siglec-7-transfected controls.

M185A = target: T2, M185A (human, UniProt Q9Y286); test: as above
T2 construct: clone of the siglec-7 mutation library; also called Siglec-7 M185A
T2 sequence (Q9Y286 19-467 M185A limits assumed): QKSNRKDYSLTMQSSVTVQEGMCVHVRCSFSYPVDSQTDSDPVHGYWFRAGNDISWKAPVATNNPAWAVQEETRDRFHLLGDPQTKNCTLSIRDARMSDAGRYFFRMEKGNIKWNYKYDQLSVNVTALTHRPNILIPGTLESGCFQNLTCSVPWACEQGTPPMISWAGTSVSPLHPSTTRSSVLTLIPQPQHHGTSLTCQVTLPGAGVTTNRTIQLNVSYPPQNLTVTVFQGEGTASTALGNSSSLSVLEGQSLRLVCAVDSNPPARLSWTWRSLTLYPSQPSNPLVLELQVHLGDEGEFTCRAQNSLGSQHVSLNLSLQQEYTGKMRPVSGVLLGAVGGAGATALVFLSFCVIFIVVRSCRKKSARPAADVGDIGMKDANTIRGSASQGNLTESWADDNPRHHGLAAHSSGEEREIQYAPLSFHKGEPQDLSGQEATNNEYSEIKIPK
Description: as §1, §2

N81A = target: T3, N81A (human, UniProt Q9Y286); test: as above
T3 construct: clone of the siglec-7 mutation library; also called Siglec-7 N81A
T3 sequence (Q9Y286 19-467 N81A limits assumed): as the sequence (Q9Y286 19-467 M185A limits assumed) above, with N63A, A167M counted along it
Description: as §1, §2

M30A = target: T4, M30A (human, UniProt Q9Y286); test: as above
T4 construct: clone of the siglec-7 mutation library; also called Siglec-7 M30A
T4 sequence (Q9Y286 19-467 M30A limits assumed): as the sequence (Q9Y286 19-467 M185A limits assumed) above, with M12A, A167M counted along it
Description: as §1, §2

K104A = target: T5, K104A (human, UniProt Q9Y286); test: as above
T5 construct: clone of the siglec-7 mutation library; also called Siglec-7 K104A
T5 sequence (Q9Y286 19-467 K104A limits assumed): as the sequence (Q9Y286 19-467 M185A limits assumed) above, with K86A, A167M counted along it
Description: as §1, §2

S47A = target: T6, S47A (human, UniProt Q9Y286); test: as above
T6 construct: clone of the siglec-7 mutation library; also called Siglec-7 S47A
T6 sequence (Q9Y286 19-467 S47A limits assumed): as the sequence (Q9Y286 19-467 M185A limits assumed) above, with S29A, A167M counted along it
Description: as §1, §2

R45A = target: T7, R45A (human, UniProt Q9Y286); test: as above
T7 construct: clone of the siglec-7 mutation library; also called Siglec-7 R45A
T7 sequence (Q9Y286 19-467 R45A limits assumed): as the sequence (Q9Y286 19-467 M185A limits assumed) above, with R27A, A167M counted along it
Description: as §1, §2

Y50A = target: T8, Y50A (human, UniProt Q9Y286); test: as above
T8 construct: clone of the siglec-7 mutation library; also called Siglec-7 Y50A
T8 sequence (Q9Y286 19-467 Y50A limits assumed): as the sequence (Q9Y286 19-467 M185A limits assumed) above, with Y32A, A167M counted along it
Description: as §1, §2

T103A = target: T9, T103A (human, UniProt Q9Y286); test: as above
T9 construct: clone of the siglec-7 mutation library; also called Siglec-7 T103A
T9 sequence (Q9Y286 19-467 T103A limits assumed): as the sequence (Q9Y286 19-467 M185A limits assumed) above, with T85A, A167M counted along it
Description: as §1, §2

I72A = target: T10, I72A (human, UniProt Q9Y286); test: as above
T10 construct: clone of the siglec-7 mutation library; also called Siglec-7 I72A
T10 sequence (Q9Y286 19-467 I72A limits assumed): as the sequence (Q9Y286 19-467 M185A limits assumed) above, with I54A, A167M counted along it
Description: as §1, §2

F48A = target: T11, F48A (human, UniProt Q9Y286); test: as above
T11 construct: clone of the siglec-7 mutation library; also called Siglec-7 F48A
T11 sequence (Q9Y286 19-467 F48A limits assumed): as the sequence (Q9Y286 19-467 M185A limits assumed) above, with F30A, A167M counted along it
Description: as §1, §2

W74A = target: T12, W74A (human, UniProt Q9Y286); test: as above
T12 construct: clone of the siglec-7 mutation library; also called Siglec-7 W74A
T12 sequence (Q9Y286 19-467 W74A limits assumed): as the sequence (Q9Y286 19-467 M185A limits assumed) above, with W56A, A167M counted along it
Description: as §1, §2

[2] = target: T13, Siglec-7-Fc (plate immobilized) (human, UniProt Q9Y286 19-357, limits assumed); test: RBC solid adhesion assay, plate-coated Siglec-7-Fc, antibody 0.5 or 1.0 ug/ml; % of RBC binding without antibody
T13 construct: also called Siglec-7-Fc protein; immobilized Siglec-7; not shown: Fc part
T13 sequence (Q9Y286 19-357 limits assumed): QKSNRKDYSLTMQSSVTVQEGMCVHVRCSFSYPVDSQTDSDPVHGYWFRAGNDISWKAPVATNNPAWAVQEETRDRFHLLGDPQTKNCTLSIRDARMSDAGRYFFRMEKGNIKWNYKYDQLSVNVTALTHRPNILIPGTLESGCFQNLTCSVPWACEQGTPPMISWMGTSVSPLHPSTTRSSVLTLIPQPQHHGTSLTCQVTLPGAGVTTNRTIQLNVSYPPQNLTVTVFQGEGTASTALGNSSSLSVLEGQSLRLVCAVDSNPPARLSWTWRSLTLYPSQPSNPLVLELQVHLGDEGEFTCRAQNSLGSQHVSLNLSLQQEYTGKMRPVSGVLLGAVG
How it was run: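 Plates coated overnight at RT with 5 μg/ml Siglec-7-Fc and blocked in PBS with BSA and 1 mM CaCl₂. Antibody (0.5 or 1.0 μg/ml) bound 1 h at RT, then RBCs (3.0×10⁶ cells/ml) added for 1 h at RT. Bound RBCs lysed and detected by peroxidase at 450 nm, expressed as % of binding without antibody.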

Sequence of human Siglec-7 expressed on human cells (primary monocytes, dendritic cells, macrophages, NK cells, … (Q9Y286 19-467): as the sequence (Q9Y286 19-467 M185A limits assumed) above, with A167M counted along it
T1 sequence (Q9Y286 19-467 V44A limits assumed): as the sequence (Q9Y286 19-467 M185A limits assumed) above, with V26A, A167M counted along it

B1: anti-Siglec-7 antibody 10B5 (antibody, V domains shown)
VH: QVHLQQSGPELVKPGASVKISCKASGYAFTNCWMNWVRQRPGKGLDWIGRIFPGNGHTNYSGKFKDKATLTEDKSSSTAYMQLSSLTSEDSAVYFCARDYSDYYFDYWGQGTTLTVSS
VL: DVQMTQTTSSLSASLGDRVTISCRASQDINTYLNWYQQKPDGTVKLLIYYTSRLHSGVPSRFSGSGSGTDYSLTISNLEQEDIATYFCQQGNTLPWTFGGGTKLEIK
notes: that light chain holds several Z and differs in its CDRs from S7-10B5.1 / 10B5L1; also called S7-10B5; mAb S7-10B5
EC50 of Siglec-7 cell surface downregulation, primary human dendritic cells, donor 362 [1]: 0.144 nM | EC50 of Siglec-7 cell surface downregulation, primary human dendritic cells, donor 363 [1]: 0.35 nM | EC50 of Siglec-7 cell surface downregulation, primary human dendritic cells, donor 364 [1]: 0.103 nM | EC50 of Siglec-7 cell surface downregulation, primary human dendritic cells, donor 365 [1]: 0.0713 nM | Binding Reactivity (% WT) (V44A): 93.9 % WT | Binding Reactivity (% WT) (M185A): 29.1 % WT | Binding Reactivity (% WT) (N81A): 153 % WT | Binding Reactivity (% WT) (M30A): 89.9 % WT | Binding Reactivity (% WT) (K104A): 13.6 % WT | Binding Reactivity (% WT) (S47A): 81.7 % WT | Binding Reactivity (% WT) (R45A): 37.3 % WT | Binding Reactivity (% WT) (Y50A): 108 % WT | Binding Reactivity (% WT) (T103A): 96.3 % WT | Binding Reactivity (% WT) (I72A): 130 % WT | Binding Reactivity (% WT) (F48A): 159 % WT | Binding Reactivity (% WT) (W74A): 101 % WT | Percent RBC Binding to Siglec-7 [2]: 88.4%
